Measurements from patent publication US20250108090A1 (published 2025).

B1: human apoptosis inhibitor of macrophage (AIM) (other)
chain: SPSGVRLVGGLHRCEGRVEVEQKGQWGTVCDDGWDIKDVAVLCRELGCGAASGTPSGILYEPPAEKEQKVLIQSVSCTGTEDTLAQCEQEEVYDCSHDEDAGASCENPESSFSPVPEGVRLADGPGHCKGRVEVKHQNQWYTVCQTGWSLRAAKVVCRQLGCGRAVLTQKRCNKHAYGRKPIWLSQMSCSGREATLQDCPSGPWGKNTCNHDEDTWVECEDPFDLRLVGGDNLCSGRLEVLHKGVWGSVCDDNWGEKEDQVVCKQLGCGKSLSPSFRDRKCYGPGVGRIWLDNVRCSGEEQSLEQCQHRFWGFHDCTHQEDVAVICSG
notes: also called human AIM; human rAIM
B3: mouse apoptosis inhibitor of macrophage (AIM), wild-type recombinant (other, UniProt Q9QWK4 22-352, looked up)
chain: ESPTKVQLVGGAHRCEGRVEVEHNGQWGTVCDDGWDRRDVAVVCRELNCGAVIQTPRGASYQPPASEQRVLIQGVDCNGTEDTLAQCELNYDVFDCSHEEDAGAQCENPDSDLLFIPEDVRLVDGPGHCQGRVEVLHQSQWSTVCKAGWNLQVSKVVCRQLGCGRALLTYGSCNKNTQGKGPIWMGKMSCSGQEANLRSCLLSRLENNCTHGEDTWMECEDPFELKLVGGDTPCSGRLEVLHKGSWGSVCDDNWGEKEDQVVCKQLGCGKSLHPSPKTRKIYGPGAGRIWLDDVNCSGKEQSLEFCRHRLWGYHDCTHKEDVEVICTDFDV
notes: mature; also called rAIM; mouse AIM

Assays:
[1] = target: human HSP70 (Endotoxin Free; SPR-117A, StressMarq) (human, UniProt P0DMV8 1-641); assay: ELISA, DAMP coated at 2 µg/mL, AIM in solution (FIG. 4)
human HSP70 (Endotoxin Free; SPR-117A, StressMarq), sequence (P0DMV8 whole entry): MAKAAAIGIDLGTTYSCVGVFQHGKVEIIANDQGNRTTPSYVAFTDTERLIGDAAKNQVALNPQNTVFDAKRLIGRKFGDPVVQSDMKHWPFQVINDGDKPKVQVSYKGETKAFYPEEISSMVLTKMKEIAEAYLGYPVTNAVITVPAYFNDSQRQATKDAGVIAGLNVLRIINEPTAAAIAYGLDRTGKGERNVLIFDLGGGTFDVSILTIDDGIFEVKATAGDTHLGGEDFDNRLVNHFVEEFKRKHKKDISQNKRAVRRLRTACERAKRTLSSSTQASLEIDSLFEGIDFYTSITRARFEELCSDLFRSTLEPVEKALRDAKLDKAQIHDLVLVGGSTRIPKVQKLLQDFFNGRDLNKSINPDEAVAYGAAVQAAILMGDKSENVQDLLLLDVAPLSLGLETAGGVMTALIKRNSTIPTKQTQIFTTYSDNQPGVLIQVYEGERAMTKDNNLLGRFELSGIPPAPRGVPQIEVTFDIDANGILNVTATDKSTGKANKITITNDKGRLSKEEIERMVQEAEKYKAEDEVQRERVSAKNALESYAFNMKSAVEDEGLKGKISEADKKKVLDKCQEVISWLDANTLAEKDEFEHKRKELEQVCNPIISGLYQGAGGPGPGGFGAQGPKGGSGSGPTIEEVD
Source text: (§1) Therefore, AIM is considered to stably bind to DAMPs through two independent binding modes, namely, charge-based interaction and disulfide bond formation. These two binding sites are also used to bind AIM and IgM pentamer, as previously reported by the present inventors (Hiramoto et al., (2018) (the aforementioned)). […] Furthermore, IgM pentamer not bound to AIM inhibited the binding of AIM to DAMPs in a dose-dependent manner (FIG. 3G). That is, the binding to IgM pentamer functionally inactivates AIM in the binding to DAMPs. Furthermore, the present inventors evaluated under a fluorescence microscope whether the trap and uptake of PRDX1, HMGB1, and S100A9 by macrophages in vitro is inhibited in the presence of rAIM. […] It is known that somewhat larger molecules are more easily taken up by phagocytes (Aderem & Underhill, (1999). Mechanisms of Phagocytosis in Macrophages. Annu. Rev. Immunol. 17, 593-623.; Sarrias et al., (2005) (the aforementioned); Canton et al., Scavenger receptors in homeostasis and immunity. Nat. Rev. Immunol. 13, 621-634.). Therefore, induction of PRDX1 aggregation by AIM is further advantageous for PRDX1 phagocytosis.

[2] = target: B1; assay: ELISA, DAMP coated at 2 µg/mL, AIM in solution (FIG. 3A)
Source text: as §1

[3] = target: B3; assay: as above
Source text: as §1

mouse AIM 2CS mutant = target: T1, mouse AIM 2CS mutant (mouse, UniProt Q9QWK4 22-352); assay: ELISA on coated DAMP (FIG. 3E)
T1 construct: Isolated cysteine of the SRCR2 domain replaced by serine; also called mouse 2CS mutant; 2CS AIM mutant
T1 sequence (looked up): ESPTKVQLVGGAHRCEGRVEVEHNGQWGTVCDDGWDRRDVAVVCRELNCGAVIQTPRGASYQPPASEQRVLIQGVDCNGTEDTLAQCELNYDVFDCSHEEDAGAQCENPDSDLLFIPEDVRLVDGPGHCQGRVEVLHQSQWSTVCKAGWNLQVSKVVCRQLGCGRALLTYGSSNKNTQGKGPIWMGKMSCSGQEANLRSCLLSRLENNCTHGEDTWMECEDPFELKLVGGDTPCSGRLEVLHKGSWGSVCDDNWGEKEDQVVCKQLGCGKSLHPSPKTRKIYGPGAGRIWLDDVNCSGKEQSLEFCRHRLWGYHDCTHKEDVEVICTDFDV
Description: 96-well ELISA plates were coated with DAMPs and control proteins resolved in Bicarbonate buffer (0.1 M NaHCO₃/Na₂CO₃, pH 9.6) at 2 μg/mL unless otherwise specified O/N at 4° C. After the plates were washed with tris buffered saline-tween (TBS-T) four times, they were coated with blocking buffer (1% Casein/TBS) for 2 h at RT. After a wash with TBS-T, AIM resolved in a dilution buffer (0.2% Casein/TBS/2 mM CaCl₂) at various concentrations was added to the well and plates were incubated for 1 h at RT. After 5-times wash with TBS-T/2 mM CaCl₂, biotinylated anti-mouse or human AIM antibody (clone #35 for mouse, clone 7 for human) was added to the wells and incubated for 1 h at RT. After 4-times wash with TBS-T/2 mM CaCl₂, Streptavidin-HRP diluted in 0.2% Casein/TBS/2 mM CaCl₂ was added to the wells and incubated for 1 h at RT. After 4-times wash with TBS-T/2 mM CaCl₂, TMB was added and incubated at RT for 10-25 min. The reaction was stopped by adding 1 N H₂SO₄ and thereby the absorbance at OD 450 nm was analyzed using a multiple plate reader.

[4] = target: mouse HSP70-A1 (low endotoxin; ADI-ESP-502-D, Enzo) (mouse, UniProt Q61696 1-641); assay: ELISA, DAMP coated at 2 µg/mL, AIM in solution (FIG. 4)
mouse HSP70-A1 (low endotoxin; ADI-ESP-502-D, Enzo), sequence (Q61696 whole entry): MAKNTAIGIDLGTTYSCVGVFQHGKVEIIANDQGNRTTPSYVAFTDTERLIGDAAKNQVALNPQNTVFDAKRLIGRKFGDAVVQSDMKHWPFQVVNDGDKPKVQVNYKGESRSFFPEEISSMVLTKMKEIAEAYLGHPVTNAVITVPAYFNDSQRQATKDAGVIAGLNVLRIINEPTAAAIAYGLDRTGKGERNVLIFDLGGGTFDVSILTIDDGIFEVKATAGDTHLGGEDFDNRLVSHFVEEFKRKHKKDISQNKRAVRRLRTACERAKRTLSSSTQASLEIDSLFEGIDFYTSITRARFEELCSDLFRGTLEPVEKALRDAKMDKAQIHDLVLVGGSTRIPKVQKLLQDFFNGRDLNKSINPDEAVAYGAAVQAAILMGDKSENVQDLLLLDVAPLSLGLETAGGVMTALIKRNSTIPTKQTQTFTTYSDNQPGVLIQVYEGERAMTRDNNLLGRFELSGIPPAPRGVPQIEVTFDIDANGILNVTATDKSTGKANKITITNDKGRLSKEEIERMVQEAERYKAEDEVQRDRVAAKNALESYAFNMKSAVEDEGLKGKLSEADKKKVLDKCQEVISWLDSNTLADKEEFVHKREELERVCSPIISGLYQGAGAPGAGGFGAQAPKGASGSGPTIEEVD
Source text: as §1

[5] = target: B3; assay: as above
Source text: as §1

[6] = target: B1; assay: as above
Source text: as §1

## B1
[1]
  binding result: binds

B2: human HMGB1 (1690-HMB-050, R&D Systems) (ligand, UniProt P09429 1-215, looked up)
chain: MGKGDPKKPRGKMSSYAFFVQTCREEHKKKHPDASVNFSEFSKKCSERWKTMSAKEKGKFEDMAKADKARYEREMKTYIPPKGETKKKFKDPNAPKRPPSAFFLFCSEYRPKIKGEHPGLSIGDVAKKLGEMWNNTAADDKQPYEKKAAKLKEKYEKDIAAYRAKGKPDAAKKGVVKAEKSKKKKEEEEDEEDEEDEEEEEDEEDEDEEEDDDDE
notes: also called high-mobility-group-box 1
[2]
  binding result: binds
[3]
  binding result: binds
Mouse AIM 2CS mutant
  binding result: no binding

## B3
[4]
  binding result: binds

B4: mouse S100A8 (9877-S8-050, R&D Systems) (ligand, UniProt P27005 1-89, looked up)
chain: MPSELEKALSNLIDVYHNYSNIQGNHHALYKNDFKKMVTTECPQFVQNINIENLFRELDINSDNAINFEEFLAMVIKVGVASHKDSHKE
[5]
  binding result: binds

B5: mouse PRDX1 with a HA tag (generated in house) (ligand, UniProt P35700 1-199, looked up)
chain: MSSGNAKIGYPAPNFKATAVMPDGQFKDISLSEYKGKYVVFFFYPLDFTFVCPTEIIAFSDRADEFKKLNCQVIGASVDSHFCHLAWINTPKKQGGLGPMNIPLISDPKRTIAQDYGVLKADEGISFRGLFIIDDKGILRQITINDLPVGRSVDEIIRLVQAFQFTDKHGEVCPAGWKPGSDTIKPDVNKSKEYFSKQK
notes: also called peroxiredoxin 1; mouse PRDXs with a HA tag; not shown: HA tag
[3]
  binding result: binds
Mouse AIM 2CS mutant
  binding result: no binding

B6: mouse PRDX6 with a HA tag (generated in house) (ligand, UniProt O08709 1-224, looked up)
chain: MPGGLLLGDEAPNFEANTTIGRIRFHDFLGDSWGILFSHPRDFTPVCTTELGRAAKLAPEFAKRNVKLIALSIDSVEDHLAWSKDINAYNGETPTEKLPFPIIDDKGRDLAILLGMLDPVEKDDNNMPVTARVVFIFGPDKKLKLSILYPATTGRNFDEILRVVDSLQLTGTKPVATPVDWKKGESVMVVPTLSEEEAKQCFPKGVFTKELPSGKKYLRYTPQP
notes: also called PRDXs; not shown: HA tag
[5]
  binding result: binds

B7: mouse S100A8/A9 (8916-S8-050, R&D Systems) (ligand)
chain 1: MPSELEKALSNLIDVYHNYSNIQGNHHALYKNDFKKMVTTECPQFVQNINIENLFRELDINSDNAINFEEFLAMVIKVGVASHKDSHKE
chain 2: MANKAPSQMERSITTIIDTFHQYSRKEGHPDTLSKKEFRQMVEAQLATFMKKEKRNEALINDIMEDLDTNQDNQLSFEECMMLMAKLIFACHEKLHENNPRGHGHSHGKGCGK
notes: Complex of S100A8 and S100A9 as bought; also called S100A8/9
[5]
  binding result: binds

B8: mouse S100A9 (2065-S9-050, R&D Systems) (ligand, UniProt P31725 1-113, looked up)
chain: MANKAPSQMERSITTIIDTFHQYSRKEGHPDTLSKKEFRQMVEAQLATFMKKEKRNEALINDIMEDLDTNQDNQLSFEECMMLMAKLIFACHEKLHENNPRGHGHSHGKGCGK
[3]
  binding result: binds
Mouse AIM 2CS mutant
  binding result: no binding

B9: mouse PRDX2 with a HA tag (generated in house) (ligand, UniProt Q61171 1-198, looked up)
chain: MASGNAQIGKSAPDFTATAVVDGAFKEIKLSDYRGKYVVLFFYPLDFTFVCPTEIIAFSDHAEDFRKLGCEVLGVSVDSQFTHLAWINTPRKEGGLGPLNIPLLADVTKSLSQNYGVLKNDEGIAYRGLFIIDAKGVLRQITVNDLPVGRSVDEALRLVQAFQYTDEHGEVCPAGWKPGSDTIKPNVDDSKEYFSKHN
notes: as for B6
[5]
  binding result: binds

B10: human S100A9 (9254-S9-050, R&D Systems) (ligand, UniProt P06702 1-114, looked up)
chain: MTCKMSQLERNIETIINTFHQYSVKLGHPDTLNQGEFKELVRKDLQNFLKKENKNEKVIEHIMEDLDTNADKQLSFEEFIMLMARLTWASHEKMHEGDEGPGHHHKPGLGEGTP
[2]
  binding result: binds

B11: human S100A8 (9876-58-050, R&D Systems) (ligand, UniProt P05109 1-93, looked up)
chain: MLTELEKALNSIIDVYHKYSLIKGNFHAVYRDDLKKLLETECPQYIRKKGADVWFKELDINTDGAVNFQEFLILVIKMGVAAHKKSHEESHKE
[6]
  binding result: binds

B12: human S100A8/A9 (8226-S8-050, R&D Systems) (ligand)
chain 1: MLTELEKALNSIIDVYHKYSLIKGNFHAVYRDDLKKLLETECPQYIRKKGADVWFKELDINTDGAVNFQEFLILVIKMGVAAHKKSHEESHKE
chain 2: MTCKMSQLERNIETIINTFHQYSVKLGHPDTLNQGEFKELVRKDLQNFLKKENKNEKVIEHIMEDLDTNADKQLSFEEFIMLMARLTWASHEKMHEGDEGPGHHHKPGLGEGTP
notes: as for B7
[6]
  binding result: binds
